Molecular target: His-tagged TASOR(354–633), tandem SPOC-DomI construct (human) (UniProt Q9UK61)
Test: SEC-MALS; complex co-expressed in E. coli and purified by Ni-affinity; Superdex 200 (10/300), 293 K, 20 mM HEPES pH 7.5, 0.5 M NaCl, 0.5 mM TCEP

Sequence of UniProt Q9UK61 (Q9UK61 354-633): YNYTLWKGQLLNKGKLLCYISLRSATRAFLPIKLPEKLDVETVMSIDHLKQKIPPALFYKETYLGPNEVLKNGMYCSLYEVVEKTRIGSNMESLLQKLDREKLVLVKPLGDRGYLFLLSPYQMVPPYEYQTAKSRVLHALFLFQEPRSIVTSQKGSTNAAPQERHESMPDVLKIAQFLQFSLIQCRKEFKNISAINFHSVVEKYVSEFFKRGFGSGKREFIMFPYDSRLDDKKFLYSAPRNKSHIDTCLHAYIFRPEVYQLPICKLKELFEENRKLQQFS

stoichiometry N: 1
Substance: MPP8 C-terminus (residues 528–860) (from UniProt Q99549-1 528-860) (domain or fragment)

From PMC7532188
